This is an account of results in the nanobody polyreactivity screen of Harvey et al. (2022).

The data set in a line: yeast display, Sf9 membrane polyspecificity reagent, FACS + sequencing; frameworks hold sequencing errors. The essentials:
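Polyreactivity labels are assigned by the sorting gate from which each nanobody was recovered. The gates were low and high (top ~1%), set on anti-HA fluorescence for expression and streptavidin fluorescence for reagent binding. Before sorting, galactose-induced (36–48 hours) yeast display cells were stained for 1 hour at 4 °C with 10% biotinylated, detergent-solubilized Sf9 membrane reagent.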
Consider “QVLLVESGGGLVQAGGSLRLSCAASGSTLYDYAMGWYRQAPGKETELVAAINGSGGSTYYADSVKGRFTISRDNAKNTVYLQMNSLKPEDTAVYYCNAKRYGFFYWQGDYCGQGTQVTVSS”, for which the “polyreactivity (PSR sort gate)” value is given as “low polyreactivity”. The value for “QVQLVESGGGLVQAGGSLRLSCAASGITFNYNAMGWYRQAPGKERELVARITWSGTRTYYADSVKGRYTISRDNAKNTVYLQMNSLKPEDTAVYYCNADPYARYYWGQGTQVTVSS” was “high polyreactivity”. The value for “QVQLVESGGGLVQAGGSLRLSCAASGYIFGSYVMGWYRQAPGKERELVAAITRIGASTYYADSVKGRFTISRDNAKNNVYLQMNSLKPEDTAVYYCATDQGGYYENDYWGQGNQVTVSS” was “low polyreactivity”; that for “QVQLVESGGGLVQAGGSLRLSCAASGRIFRYYAMGWYRQAPGKERELVAAITWRGSSTYYADSVKGRFTISRDNAKNTVYLQMNSLKPEDTAVYYCNKLRSPHGYIRPGYDYWGQGTQVTVSS” was “high polyreactivity”; that for “QVQLVESGGGLVQAGGSLRLSCAASGSTFSRYAMGWYRQAPGKERELVAAISYSGDSTYYADSVKGRFTISRDYAKNTVYLQMNSLKPEDTAVYYCNVYSHYRGYYWGQGTQVTVSS” was “high polyreactivity”.

In the case of “QVQLVESGGGLVQAGGSLRLSCDASGRIFRYNAMGWYRQAPGKEREFVAAITWRGGSTYYADSVKGRFTISRDNAKYTVYLQMNSLKPEDTAVYYCATRSPFGAAYEYGYWGQGTQVTVSS”, the “polyreactivity (PSR sort gate)” value is given as “high polyreactivity”. To “QVQLVESGGGLVQAGGSLRLSWAASGSTFDGYAMGWYRQAPGKERELVAAITRSGGSTYYADSVKGRFTISRDNAKITVYRQINSLKPEDTEVYYSNKYGYKGCVGYDYWGKGTQVTVSS” belongs “high polyreactivity”; to “QVQLVESGGGLVQAGGSLRLSCAASGSTFAGHAMGWSRQAPGKERELVAAITFSGGRTDYADSVKGRFTISRDNAKNTVYLQMNSLIPEDTAVYYCAAPADDTVHYQNYYWGQGTQVTVSS”, “low polyreactivity”; to “QVQRVESWGGLVQAGGSLRLSCAASGFTFSDNAMGWYRQAPGKERELVAAISRRGGSTYYADSVKGRFTISRDNAKNTVYLQMNSLKPEVTAVYYCAAVRASSKVHTRTYDYWGQGTQVTVSS”, “high polyreactivity”. As to “QVQLVESGGGLVQAGGSLRLSCAASGSIFYYYAMVWSRQAPGKERELVAAISSGGRTYYADSVKGRFTISRDNAKYTVYLQMNSLKPEDTAVYYCAAVLRSNRGGYWGQGTQVTVSS”, the “polyreactivity (PSR sort gate)” value was “high polyreactivity”. As for “QVQLVESGGGLVLAGGSLRLSCAASGIIFKIYAMGWFRQAPGKEMELVADITSVGSTKYADSVKGRFTISRDNAKNTVYLQMNSLKPEDTAVYYCATDWVTSHDDDYWGQGTQVTVSS”, the “polyreactivity (PSR sort gate)” value is recorded as “low polyreactivity”. To “QVQLVESGGRLVQAGGSLRLSCAASGSIFNAYAMGWYRQAPGKEREFVAVITSNGGITYYADSVKGRFTISRDNAKNTVYLQMNSLKPEDTAVYYCAAYEIYYEFDSWGQGTQVTVSS” belongs “low polyreactivity”; to “QVQLVESGGGLVHAGGSLRLSCAASGSIYPSYGMGWYRQAPGKERELVARITSGGGTNYADSVKGRFTISRDNAKNTVYLQMNSLKPEDTAVYYCAAQSTTIEDGWYVEYNYWGQGTQVTVSS”, “high polyreactivity”; to “QVQLVESGGGLVQAGGSLRLSCAASGGIFSRYAMGWYRQAPGKEREFVAAISFSGASTYYADSVKGRFTISRDNAKYTVYLQMNSLKPEDTAVYYCAAYWDAEGRRYTRLDYWGQGTQVTVSS”, “low polyreactivity”. To “QVQLVESGGGLVQAGGSLRLTCAASGFIFCSYAMRWYRQAPGKERELVAAISFRGGSTFYADSVKGRFTISRDNAKNTVYLQMNSLKPEDTAVYYCNKAAYSIHSGLSYYHWGQGTQVTVSS” belongs “low polyreactivity”; to “QVQLVESGGGLVQAGGSLRLSCAASGSIFKYYTMGWSRQAPGKERELVAAINSSGGSTYYADSVKGRFTISRYNAKNTVYLQMYSLKPEDTAVYYCIAVTSRRWRYELDYLGQGTQVTVSS”, “high polyreactivity”.
